pKd: −log10 of the molar value.

The target of data set [1] is T1, IL-6 (Homo sapiens, UniProt P05231).
T1 construct: purchased R&D Systems 206-IL-200/CF
In words: Kinetic analysis using surface plasmon resonance (Biacore T200), immobilized IL-6. It counts as binding. Here is the method: (§1) Kinetic constants (ka and kd) and affinities (KD) were determined for His6-tagged Y variants using a Biacore T200 instrument (GE Healthcare). Target proteins C4, IL-6 and insulin, respectively, were immobilized in separate flow cells on the carboxylated dextran layer of different CM5 chip surfaces (GE Healthcare). Immobilization was performed using amine coupling chemistry according to the manufacturer's protocol and PBS pH 7.4 supplemented with 0.1 Tween20 (PBST 0.1%) as running buffer. The ligand immobilization levels on the surfaces were 3280-8830 RU for C4, 495-1184 RU for IL-6, and 270-282 RU for insulin. One flow cell surface on each chip was activated and deactivated for use as blank during analyte injections. In the kinetic experiment, PBST 0.1% was used as running buffer at a flow rate of 30 μl/min. The analytes, i.e. Y variants, were each diluted in PBST 0.1 buffer at concentrations of 1000, 500, 100, 50 and 10 nM and injected for 5 min, followed by dissociation in running buffer for 3 min. After dissociation, the surfaces were regenerated with one injection of 30 μl 10 mM HCl. Kinetic constants were calculated from the sensorgrams using the Langmuir 1:1 model of Biacore T200 Evaluation software 2.0 (GE Healthcare).
(§2) Produced Y variants were subjected to CD and SPR analyses according to the methods described in Example 1.
(§3) Produced Y variants were subjected to CD and SPR analyses according to the methods described in Example 1. In addition, CD spectra of selected IL-6 binding variants were also recorded at 60, 70, 80 and 90° C.
(§4) The Y variants were cloned, produced and characterized according to the general methods described in Example 1. Produced Y variants with point mutations were subjected to CD and SPR analyses as described in Example 1. In addition, CD spectra of the IL-6 binding variants were also recorded at 60, 70, 80 and 90° C.
Background: In SPR one partner is held on a chip, and binding of the other changes the refractive index at the surface.

Data set [2] can be described thus: Circular dichroism spectroscopy analysis (CD spectra, variable temperature measurement, refolding). The class given is physicochemical. Particulars: for α-helical content / ability to fold into an α-helical structure: CD spectrum at 20° C. In a few lines:
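Y variants at 0.5 mg/ml in PBS were scanned from 250 to 195 nm at 20° C. in a 1 mm cell. Tm came from the 221 nm signal during heating from 20 to 90° C. at 5° C./min, and a second 20° C. spectrum after heating assessed refolding. Selected IL-6 binders were also recorded at 60, 70, 80 and 90° C.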

For data set [3], the target named is T2, insulin (Homo sapiens, UniProt P01308).
T2 construct: purchased Roche 1376497
In words: Kinetic analysis using surface plasmon resonance (Biacore T200), immobilized insulin. The class given is binding. Conditions: MGSSHHHHHHGSS-[Y#####]-A. Here is the method: as §1, §2
The Y variants were cloned, produced and characterized according to the general methods described in Example 1. Produced Y variants with point mutations and/or N-terminal or C-terminal extensions were subjected to CD and SPR analyses as described in Example 1.
as §3, §4

Data set [4] can be described thus: Fraction of soluble product on expression in E. coli, estimated from SDS-PAGE. Conditions: MGSSHHHHHHGSS-[Y#####]-A; for Estimated soluble fraction: Table 7, Ylib002Naive.I selection; for Est soluble fraction: Table 9, mutation study 5. The class given is physicochemical. Here is the method: E. coli T7E2 cells were transformed with plasmids containing the gene fragment of each respective Y variant. The resulting recombinant strains were generally cultivated in media supplemented with 50 μg/ml kanamycin at 30-37° C. in 50 ml scale using the EnPresso protocol (Enpresso GmbH). In order to induce protein expression, isopropyl-β-D-1-thiogalactopyranoside (IPTG) was added to a final concentration of 0.5 mM at an optical density at 600 nm (OD600) of approximately 10. After induction, the cultures were incubated for 16 h. The cells were harvested by centrifugation. Alternatively, the culture was performed at 37° C. in 980 ml of TSB-YE medium (tryptic soy broth 30 g/l supplemented with yeast extract 5 g/l) supplemented with 50 μg/ml kanamycin, and protein expression induced with 0.2 mM IPTG at OD600=2, followed by incubation for 5 h before harvesting of the cells by centrifugation. The total yield as well as the fraction of soluble and insoluble product of the respective Y variant was estimated based on SDS-PAGE analysis.

Where [5] appears, read: Table 2, His6-tagged Y variant, MGSSHHHHHHGSS-[Y#####]-ASGSVD.
The mark [6] stands for this setting: Table 2, Ylib001Naive.I selection, MGSSHHHHHHGSS-[Y#####]-ASGSVD, 0.5 mg/ml in PBS, 221 nm, 20-90° C.
Setting [7] is: Table 7, MGSSHHHHHHGSS-[Y#####]-A.
The mark [8] stands for this setting: Table 9, mutation study 5, MGSSHHHHHHGSS-[Y#####]-A.

T1 sequence (P05231 30-212): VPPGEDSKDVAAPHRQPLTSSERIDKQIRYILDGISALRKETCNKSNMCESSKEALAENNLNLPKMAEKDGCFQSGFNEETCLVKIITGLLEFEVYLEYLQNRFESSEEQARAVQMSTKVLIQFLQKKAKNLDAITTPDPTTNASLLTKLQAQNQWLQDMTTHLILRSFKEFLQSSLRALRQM
T2 sequence (P01308 25-54 limits assumed): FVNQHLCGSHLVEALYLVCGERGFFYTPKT
T2 sequence (P01308 90-110 limits assumed): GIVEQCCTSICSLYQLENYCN

Usually pKd stands for the negative decadic logarithm of the Kd, by convention in mol/L. A lower pKd goes with a high Kd. Substance “Y00035: IL-6 binding Y variant from Ylib001Naive.I, SEQ ID NO:50 (LAEAKEAANAELDSYGVQANSIEAIEQGLFVEVVELLKELILAALP; Engineered IL-6 binding Y variant)” gave a pKd in data set [1] (setting [5]) of 6.44. In data set [2], the “α-helical content / ability to fold into an α-helical structure” value is “limited ability”. Also, in data set [2] (setting [6]), the Tm came to 60 °C.

For the substance “Y00076: IL-6 binding Y variant from Ylib001Naive.I, SEQ ID NO:61 (LAEAKEAALAELDSKGIEEKSISEIEAGLWVEVVELLKESILAVLP; Engineered IL-6 binding Y variant)”, the pKd in data set [1] (setting [5]) was 6.37. Moreover, the “α-helical content / ability to fold into an α-helical structure” value in data set [2] is listed as “limited ability”. In addition, in data set [2] (setting [6]), the Tm came to 47 °C.

In data set [3] (Table 7), “Y00356a: insulin binding Y variant from Ylib002Naive.I, SEQ ID NO:141 (LAEAKEAAIAELDSKGVGAKYIKMIQHAHYVEVVQWLKQAILAHLPA; Engineered insulin binding Y variant)” gave a pKd of 9.77, a ka of 3.4e+07 M⁻¹ s⁻¹ and a kd of 0.0061 s⁻¹. Further, the Tm in data set [2] (setting [7]) was determined as 56 °C. Besides, in data set [4], the Estimated soluble fraction is listed as 60%.

In data set [3] (Table 7), “Y00358: insulin binding Y variant from Ylib002Naive.I, SEQ ID NO:142 (LAEAKEAAIAELDSKGVGAAKIKWIQDAKSVETVQFLKQAILAELPA; Engineered insulin binding Y variant)” had a pKd of 8.00, a ka of 220000 M⁻¹ s⁻¹ and a kd of 0.0023 s⁻¹. In data set [2] (setting [7]), the Tm came out at 61 °C. The Estimated soluble fraction in data set [4] is 97%.

As for “Y00361: insulin binding Y variant from Ylib002Naive.I, SEQ ID NO:144 (LAEAKEAAIAELDSKGVGAKFIKMIQSAKLVETVQLLKQAILADLPA; Engineered insulin binding Y variant)”, in data set [3] (Table 7), the pKd is 6.51, the ka turned out to be 12000 M⁻¹ s⁻¹ and the kd was 0.0036 s⁻¹. Moreover, in data set [2] (setting [7]), the Tm was determined as 52 °C. Further, the Estimated soluble fraction in data set [4] is reported as 100%.

In data set [1] (setting [7]), “Y02374: IL-6 binding Y variant from Ylib002Naive.I, SEQ ID NO:72 (LAEAKEAAIAELDSKGVGAAEIKRIQAAELVEIVQLLKQAILAVLPA; Engineered IL-6 binding Y variant)” showed a pKd of 6.92, a ka of 14000 M⁻¹ s⁻¹ and a kd of 0.0017 s⁻¹. Further, the Estimated soluble fraction in data set [4] is on record as 100%.

For “Y02415: IL-6 binding Y variant from Ylib002Naive.I, SEQ ID NO:74 (LAEAKEAAIAELDSKGVGAGDIKDIQDALLVEIVQLLKQAILAVLPA; Engineered IL-6 binding Y variant)”, in data set [1] (setting [7]), the pKd was 6.80, the ka was found to be 9700 M⁻¹ s⁻¹ and the kd is 0.0015 s⁻¹. The Estimated soluble fraction in data set [4] was 100%.

In data set [1] (setting [7]), “Y02447: IL-6 binding Y variant from Ylib002Naive.I, SEQ ID NO:76 (LAEAKEAAIAELDSKGVGAHGIKEIQDAILVEIVQLLKQAILAALPA; Engineered IL-6 binding Y variant)” showed a pKd of 6.80, a ka of 11000 M⁻¹ s⁻¹ and a kd of 0.0017 s⁻¹. For the same substance, the Estimated soluble fraction in data set [4] is 100%.

In the case of “Y02709: insulin binding Y variant, Y00358 with I9L, SEQ ID NO:149 (LAEAKEAALAELDSKGVGAAKIKWIQDAKSVETVQFLKQAILAELPA; Engineered insulin binding Y variant)”, in data set [3] (Table 9, mutation study 5), the pKd was 6.42, the ka turned out to be 27000 M⁻¹ s⁻¹ and the kd came out at 0.01 s⁻¹. In addition, the Tm in data set [2] (setting [8]) was 54 °C. For the same substance, in data set [4], the Est soluble fraction is 100%.

In data set [3] (Table 9, mutation study 5), “Y02710: insulin binding Y variant, Y00358 with K15Y, SEQ ID NO:150 (LAEAKEAAIAELDSYGVGAAKIKWIQDAKSVETVQFLKQAILAELPA; Engineered insulin binding Y variant)” had a pKd of 7.85, a ka of 190000 M⁻¹ s⁻¹ and a kd of 0.0027 s⁻¹. Further, the Tm in data set [2] (setting [8]) was found to be 61 °C. Besides, the Est soluble fraction in data set [4] is 100%.

In data set [3] (Table 9, mutation study 5), “Y02711: insulin binding Y variant, Y00358 with Q26E, SEQ ID NO:151 (LAEAKEAAIAELDSKGVGAAKIKWIEDAKSVETVQFLKQAILAELPA; Engineered insulin binding Y variant)” showed a pKd of 7.27, a ka of 1500 M⁻¹ s⁻¹ and a kd of 0.008 s⁻¹. The Tm in data set [2] (setting [8]) is 62 °C. Moreover, in data set [4], the Est soluble fraction is 100%.

In data set [3] (Table 9, mutation study 5), “Y02713: insulin binding Y variant, Y00310 with K15Y, SEQ ID NO:153 (LAEAKEAAIAELDSYGVGAYQIKFIQIAHTVEEVQLMKQAILADLPA; Engineered insulin binding Y variant)” had a pKd of 6.72, a ka of 110000 M⁻¹ s⁻¹ and a kd of 0.014 s⁻¹. Further, in data set [2] (setting [8]), the Tm was determined as 51 °C. Besides, the Est soluble fraction in data set [4] is reported as 100%.

As to “Y02714: insulin binding Y variant, Y00310 with Q26E, SEQ ID NO:154 (LAEAKEAAIAELDSKGVGAYQIKFIEIAHTVEEVQLMKQAILADLPA; Engineered insulin binding Y variant)”, in data set [3] (Table 9, mutation study 5), the pKd is 6.27, the ka was 290000 M⁻¹ s⁻¹ and the kd came out at 0.16 s⁻¹. Moreover, the Tm in data set [2] (setting [8]) was 53 °C. Also, the Est soluble fraction in data set [4] is 100%.

With “Y02715: insulin binding Y variant, Y00358 with K15Y Q26E, SEQ ID NO:155 (LAEAKEAAIAELDSYGVGAAKIKWIEDAKSVETVQFLKQAILAELPA; Engineered insulin binding Y variant)”, in data set [3] (Table 9, mutation study 5), the pKd was 6.55, the ka came to 6700 M⁻¹ s⁻¹ and the kd was found to be 0.0019 s⁻¹. In data set [2] (setting [8]), the Tm is 61 °C. In addition, the Est soluble fraction in data set [4] was 100%.

Regarding “Y02716: insulin binding Y variant, Y00301 with K15Y Q26E, SEQ ID NO:156 (LAEAKEAAIAELDSYGVGARQIKWIEQAKSVEVVQWLKQAILADLPA; Engineered insulin binding Y variant)”, in data set [3] (Table 9, mutation study 5), the pKd was 8.12, the ka was determined as 2.7e+07 M⁻¹ s⁻¹ and the kd was determined as 0.21 s⁻¹. In data set [2] (setting [8]), the Tm was found to be 58 °C. Moreover, the Est soluble fraction in data set [4] is on record as 100%.

“Y02717: insulin binding Y variant, Y00310 with K15Y Q26E, SEQ ID NO:157 (LAEAKEAAIAELDSYGVGAYQIKFIEIAHTVEEVQLMKQAILADLPA; Engineered insulin binding Y variant)”: in data set [3] (Table 9, mutation study 5), the pKd is 6.21, the ka stood at 33000 M⁻¹ s⁻¹ and the kd was found to be 0.02 s⁻¹. Further, the Tm in data set [2] (setting [8]) came out at 52 °C. Further, in data set [4], the Est soluble fraction is 100%.

The values above are taken from US11505576B2, “Polypeptides based on a scaffold” (AFFIBODY AB, priority 2018, dated 2022).
